The source of these data is the supplement of paper PMC9170038.

The data set has as its system MS2 coat protein. Put plainly: apparent KD of MS2 coat protein; designed switch direction (-1 OFF switch, 1 ON switch): -1; higher = weaker reporter binding. In short, it runs like this: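 Transcription of designed RNA switches on Illumina chips was done by stalled E. coli RNA polymerase. SNAP-549-labelled MS2 coat protein was then titrated in doubling steps from 0.7 or 1.5 nM to 3 µM, with steps of 0.8–1.5 h at the lowest and 10–20 min at the highest concentration. The per-design median over clusters of curve-fitted normalised fluorescence is reported as apparent KD.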

Setting [1] is: Eterna round: R95, input ligand: FMN 200 uM.
[2] abbreviates: Eterna round: R95, input ligand: microRNA oligo, concentration not stated.
Where [3] appears, read: Eterna round: R95, input ligand: none.
Where [4] appears, read: input ligand: microRNA oligo, concentration not stated.

With “AAAUAAUAGAUAAAAUAAUACAUGAGGAUCACCCAUGUGCGAUGUUGAGGGUGAUACAGGCUUUUUGCUCGUCUUAU (puzzle: Sensor v3, turn-off variant 1)”, the “apparent KD of MS2 coat protein” value under setting [1] came out at 0.177 µM, the “apparent KD of MS2 coat protein” value under setting [2] was 0.0205 µM and the “apparent KD of MS2 coat protein” value under setting [3] was determined as 0.0679 µM.
As for “AAAUACAAGCAAAGAUCCUACAUGAGGAUCACCCAUGUGCUCGUCUUGUAAAGUACUAUCACGAAAGUGAUAGUACA [Sensor 3, v1 - 16] (puzzle: Sensor v3, turn-off variant 1)”, the “apparent KD of MS2 coat protein” value under setting [1] was found to be 0.0519 µM, the “apparent KD of MS2 coat protein” value under setting [2] was 0.0275 µM and the “apparent KD of MS2 coat protein” value under setting [3] was 0.0702 µM.
For “AAAUACAGGUAAAGAUUCUACAUGAGGAUCACCCAUGUGCUCGUCUUAUAAAGUACUAUCACGAAAGUGAUAGUACA [Sensor 3, v1 - 40] (puzzle: Sensor v3, turn-off variant 1)”, the “apparent KD of MS2 coat protein” value under setting [1] turned out to be 0.0259 µM, the “apparent KD of MS2 coat protein” value under setting [2] came to 0.169 µM and the “apparent KD of MS2 coat protein” value under setting [3] was determined as 0.0216 µM.
For “AAAUACCGGUGAGGAUAUUUAUAAUAGAGCUUUAUGAUAUACAUGAGGAUCACCCAUGUUACUUUAAAGAAGGCAUCGGAAUAA [Mat - Exclusion NG 2 - Mod of JL - D93] (Eterna round: R96, puzzle: Exclusion NG 2)”, the “apparent KD of MS2 coat protein” value by setting is: (input ligand: FMN 200 uM) 0.0154 µM; under setting [4], 0.0139 µM; (input ligand: none) 0.0189 µM.
With “AAAUAGCUAGAGGAUAUUGGAUAGGAUUUAGUACGAGAAGGUUAGACAUGAGGAUCACCCAUGUUGUGUUGGGA [EX6 #16] (Eterna round: R97, puzzle: Exclusion 6)”, the “apparent KD of MS2 coat protein” value is, setting by setting: (input ligand: FMN 200 uM) 0.0492 µM; (input ligand: none) 0.0529 µM.
Turning to “AAAUCCGCUGAGGAUAUGAUGACUGAGAGGUCAUCAGAAGGCGGUACAUGAGGAUCACCCAUGUCUAUGGGCAA [Ex-6 Malc#29] (puzzle: Exclusion 6)”, the “apparent KD of MS2 coat protein” value is, setting by setting: under setting [1], 0.313 µM; under setting [2], 0.317 µM; under setting [3], 0.636 µM.
As to “AAAUCCGCUGAGGAUAUUAUGAGUGAGAGCUCAUGAGAAGGCGGUACAUGAGGAUCACCCAUGUCUAUGGGCAA [Ex-6 Malc#26] (puzzle: Exclusion 6)”, under setting [2], the “apparent KD of MS2 coat protein” value came out at 0.329 µM.
For “AAAUCUCACGUGAGGAUAUCCUGGGCAACGUCCACGGAGAAGGCACAUGAGGAUCACCCAUGUGUUCGCAAUAC [Brourd's mod of Exclusion 4 (MOD2 of Nando's BmEX4 C.1)] (Eterna round: R97, puzzle: Brourd's mod of Exclusion 4)”, the “apparent KD of MS2 coat protein” value is, setting by setting: (input ligand: FMN 200 uM) 0.0223 µM; (input ligand: none) 0.0179 µM.
With “AAAUGAUGUCAGGAUAUUGACGUUAAAAGAACGCAAGAAGGGACAACAUGAGGAUCACCCAUGUGGUCCUAUAA [Bira] (puzzle: Exclusion 6)”, under setting [2], the “apparent KD of MS2 coat protein” value is 0.013 µM.
For “AAAUUAAGUGUGAGGAUAUGCUGGUCCUUGGAUCAGCAGAAGGCACAUGAGGAUCACCCAUGUAAUAUAUUUAA [Mat - Exclusion 4 - JL Mod - D49] (puzzle: Brourd's mod of Exclusion 4)”, the “apparent KD of MS2 coat protein” value stood at 0.439 µM under setting [1], 0.0742 µM under setting [2] and 0.144 µM under setting [3].
As for “AAAUUCUGAGGAUAUCGAUGUUUGUACAUGAGGAUCACCCAUGUCCUUUUUAUUUAAUCCCGAGAAGGCAGUGUAU [JR_E5_Sub098] (puzzle: Exclusion 5)”, under setting [2], the “apparent KD of MS2 coat protein” value was found to be 0.0326 µM.
With “AACAAAACGCGAGGAUAUCGCCAACAUGAGGAUCACCCAUGUCACGGGUGCAAAUGUCUUCUAGGCGAGAAGGCGCAUCCAUAC [Diatza] (Eterna round: R96, puzzle: Exclusion NG 2)”, the “apparent KD of MS2 coat protein” value is, setting by setting: (input ligand: FMN 200 uM) 0.704 µM; under setting [4], 0.344 µM; (input ligand: none) 0.641 µM.
Regarding “AACAAGCUUUUAAGAUCCUACAUGAGGAUCACCCAUGUGCUCGUCUUGUAACGUACUGUGACGAAAGUCACGGUACG [JL TOV1 3.29] (Eterna round: R97, puzzle: Sensor, turn-off variant 1)”, the “apparent KD of MS2 coat protein” value (input ligand: FMN 200 uM) was 0.233 µM and the “apparent KD of MS2 coat protein” value (input ligand: none) came to 0.182 µM.
Regarding “AACACGGCAGGAUAUACUUGAGGAUCACCCAAGUUGUUCGCAACAUAAAAUAACUCUUGUAGAAGGGCCAAAAG [Isorbi] (Eterna round: R97, puzzle: Exclusion 3)”, the “apparent KD of MS2 coat protein” value turned out to be 0.22 µM (input ligand: FMN 200 uM) and 0.0336 µM (input ligand: none).
For “AACAGUACAGGAUAUACAUGAGGAUCACCCAUGUGAAGAAUAAGUGGAGUACCACAAAGUAGAAGGGUACUGGA [Ruby 88] (Eterna round: R96, puzzle: Exclusion 3)”, the “apparent KD of MS2 coat protein” value under setting [4] stood at 0.0215 µM.
In the case of “AACCUAAUGCGAGGAUAUACUGAGACGUACAGUCGUCAGACAUGAGGAUCACCCAUGUACGCCUCGUAGAAGGCGCGUGACUAA [Bearareus] (Eterna round: R96, puzzle: Exclusion NG 2)”, the “apparent KD of MS2 coat protein” value (input ligand: FMN 200 uM) was determined as 0.0326 µM, the “apparent KD of MS2 coat protein” value under setting [4] turned out to be 0.0134 µM and the “apparent KD of MS2 coat protein” value (input ligand: none) came to 0.0168 µM.
